# Measurements from US20170100463A1, “METHOD TO IMPROVE SAFETY AND EFFICACY OF ANTI-CANCER THERAPY” (CLS Therapeutics Limited, priority 2014, published 2017).
# B1: human recombinant DNase I: human recombinant DNase I (Pharmsynthez OJSC), deoxyribonuclease enzyme (protein, UniProt P24855 23-282, looked up)
# Deoxyribonuclease-1: LKIAAFNIQTFGETKMSNATLVSYIVQILSRYDIALVQEVRDSHLTAVGKLLDNLNQDAPDTYHYVVSEPLGRNSYKERYLFVYRPDQVSAVDSYYYDDGCEPCGNDTFNREPAIVRFFSRFTEVREFAIVPLHAAPGDAVAEIDALYDVYLDVQEKWGLEDVMLMGDFNAGCSYVRPSQWSSIRLWTSPTFQWLIPDSADTTATPTHCAYDRIVVAGMLLRGAVVPDSALPFNFQAAYGLSDQLAQAISDHYPVEVMLK
# Experiments:
# L1210 leukemia cells = experiment: Survival of mice transplanted with L1210 leukemia cells; format: in vivo, DBA2 mice; conditions: AraC 1000 mg/kg IP Days 2, 5, 8; DNase II 15 or 45 mg/kg/day IP; alone or combined
# Experimental: Treatment with DNase and AraC was initiated on Day 1 of experiment. Cytosine arabinoside (AraC; Cytosar; Pfizer) was injected IP at a dose of 1000 mg/kg on Days 2, 5 and 8. The injected doses were considered adequate for the model and injection route based on prior experiments (13-14). DNase II (Wornington) was injected IP at doses of 15 mg/kg/day and 45 mg/kg/day on Days 1, 3, 5, 8, 10, 12, 15, 17, and 19.
# Animals were randomized into 6 experimental groups of 6 mice per group as follows: • 1. Group I: negative control (no treatment); • 2. Group II: positive control (animals treated with AraC); • 3. Group III: animals treated with AraC and 15 mg/kg DNase; • 4. Group IV: animals treated with AraC and 45 mg/kg DNase; • 5. Group V: animals treated with 15 mg/kg DNase, no AraC; • 6. Group VI: animals treated with 45 mg/kg DNase, no AraC.
# [1] = Gastrointestinal lesions after Etoposide/5-FU chemotherapy in rats; format: in vivo, male Wistar rats; conditions: for Total number of lesions per group: 16 rats; for Total number of lesions per group / Number of lesion free animals (percent) / Median number of lesions / Number of lesion free animals: Etoposide 200 mg/kg + 5-FU 400 mg/kg per os; for Total number of lesions per group / Median number of lesions: 36 hours; for Number of lesion free animals: of 16 rats
# Experimental: Animals were divided into 4 groups of 16 rats each. Two hours after the Etoposide/5-FU challenge, rats were treated as follows: • 1. Group I: IV placebo (WFI); • 2.
# in vivo = experiment: in vivo
# Excerpt: Group I: control group (no Doxorubicin, no DNase); • 2.
# Animals were monitored during 2 weeks from the beginning of experiment for survival and weight.
# [2] = Cyclophosphamide-induced neutropenia, white blood cell count; format: in vivo, BALB/C mice; conditions: mice, cyclophosphamide 200 mg/kg IP Day 1; for early phase decline in WBC count (FIG. 3): DNase I 25 mg/kg/day IV or GM-CSF 200 μg/kg/day SC Days 2-5
# Experimental: 30 female 10-12 week old BALB/C mice (obtained from Rappolovo animal house) were used in this experiment. […] On Day 1, neutropenia was induced by a single IP injection of 200 mg/kg cyclophosphamide (Cyclophosphanum-LANS) in 200 μl of WFI. Starting on Day 2, mice were then treated as follows: • 1. Group I (n=10): control (no treatment); • 2. Group II (n=10): animals were treated with human recombinant DNase I (Pharmsynthez OJSC) at 25 mg/kg/day (50000 KU/kg/day) dose injected IV on Days 2-5; • 3. Group III (n=10): animals were treated with human recombinant GM-CSF (Neostim, Pharmsynthez OJSC) at 200 μg/kg/day dose injected subcutaneously (SC) on Days 2-5.
# The white blood cell count (WBC) in each animal was monitored daily during the 10 day experiment using blood cell counter.
# Erlich carcinoma cells = experiment: Erlich carcinoma ascites tumor with radiotherapy: survival and body weight
# Experimental: Radiotherapy was performed using a cobalt-60 teletherapy machine. The abdominal fields of the mice were treated by external irradiation. The fractionation was 200 cGy per day for 5 days. Mice were divided into 6 groups treated as follows: Group 1: radiotherapy only (external irradiation 200 cGy per day for 5 days); Group 2: recombinant human DNAse I (Pharmsynthez) 20 mg/kg/day administered intramuscularly in 2 daily doses; Group 3: recombinant human DNAse I (Pharmsynthez) 40 mg/kg/day administered intramuscularly in 2 daily doses; Group 4: radiotherapy (external irradiation 200 cGy per day for 5 days) plus recombinant human DNAse I (Pharmsynthez) 20 mg/kg/day administered intramuscularly in 2 daily doses; Group 5: radiotherapy (external irradiation 200 cGy per day for 5 days) plus recombinant human DNAse I (Pharmsynthez) 40 mg/kg/day administered intramuscularly in 2 daily doses. Group 6 was a control group receiving placebo (water for injection).
# [3] = Myocardial necrosis area in deceased rats challenged with doxorubicin; format: in vivo; conditions: doxorubicin 7.5 mg/kg, DNase I 15 mg/kg daily IP vs placebo
# Experimental: FIG. 1 is a bar graph showing myocardial necrosis area in deceased rats challenged with sub-lethal IV doses of doxorubicin (7.5 mg/kg) and either daily IP injections of human recombinant DNase I (15 mg/kg) (black bar) or daily IP injections of placebo (WFI) (diagonal hatched bar). Serial myocardium microscopy samples from each heart were analyzed using an automated video analyzer to quantify the necrotic areas. The sum of necrotic area (Sna; nm^2) was calculated as a sum of necrotic areas in 30 serial slides from each individual autopsied heart (n=3 for DNase I-treated rats—black bar; n=5 for placebo-treated rats—diagonal hatched bar).
# The hearts deceased rats challenged with sub-lethal doses of doxorubicin (7.5 mg/kg) from (Groups IV and V) were autopsied. Serial myocardium microscopy samples from each heart were analyzed using an automated video analyzer to quantify the necrotic areas. The sum of necrotic area (Sna; nm^2) was calculated as a sum of necrotic areas in 30 serial slides from each individual autopsied heart (n=3 for Group IV (FIG. 1, black bars); n=5 for Group V (FIG. 1, diagonal hatched bars)). Group IV received daily IP injections of human recombinant DNase I at 15 mg/kg dose, while Group V received daily IP injections of placebo (WFI).
# [4] = Doxorubicin 7.5 mg/kg/day IV 5 days + DNase I 15 mg/kg/day IP (Group IV) or placebo (Group V)
# [5] = Doxorubicin 10.0 mg/kg/day IV 5 days + DNase I 15 mg/kg/day IP (Group VI) or placebo (Group VII)
# [6] = rats, Doxorubicin 7.5 mg/kg/day IV 5 days + DNase I 15 mg/kg/day IP (Group IV) or placebo (Group V), monitored 2 weeks
# [7] = rats, Doxorubicin 10.0 mg/kg/day IV 5 days + DNase I 15 mg/kg/day IP (Group VI) or placebo (Group VII), monitored 2 weeks
# [8] = Group 2: DNAse I 20 mg/kg/day intramuscularly, no radiotherapy
# [9] = Group 3: DNAse I 40 mg/kg/day intramuscularly, no radiotherapy
# [10] = Group 4: radiotherapy 200 cGy per day for 5 days plus DNAse I 20 mg/kg/day intramuscularly
# [11] = Group 5: radiotherapy 200 cGy per day for 5 days plus DNAse I 40 mg/kg/day intramuscularly
molecule,measurement,setting,value
"Nc1ccn([C@@H]2O[C@H](CO)[C@@H](O)[C@@H]2O)c(=O)n1 [AraC, cytosine arabinoside]",survival after implantation of L1210 leukemia cells (FIG. 4),L1210 leukemia cells,better survival rates versus non-treated mice
"CN/C(=N/CCSCc1nc[nH]c1C)NC#N [Cimetidine, cimetidine, reference compound]",Total number of lesions per group,[1]; treatment 50 mg/kg IV,40
same,Number of lesion free animals (percent),[1]; treatment 50 mg/kg IV,62.5%
same,Median number of lesions,[1]; treatment 50 mg/kg IV,2.5 ± 1.1
same,Number of lesion free animals,[1]; treatment 50 mg/kg IV,10
"COc1cccc2c1C(=O)c1c(O)c3c(c(O)c1C2=O)C[C@@](O)(C(=O)CO)C[C@@H]3O[C@H]1C[C@H](N)[C@H](O)[C@H](C)O1 [Doxorubicin, reference compound]",Median survival of deceased rats,in vivo; [4],8.2 ± 1.0 days
same,Median survival of deceased rats,in vivo; [5],6.6 ± 0.9 days
same,Median survival of deceased rats,"in vivo; male, Wistar, rat, in vivo",12 ± 2.1 days
same,Number of dead/out of total in group,"in vivo; male, Wistar, rat, in vivo",3/6
same,LD50 at 2 weeks,"in vivo; male, Wistar, rat, in vivo, iv",3.75 mg/kg
same,Number of dead/out of total in group,in vivo; [6],5/6
same,Number of dead/out of total in group,in vivo; [7],6/6
"GM-CSF: human recombinant GM-CSF (Neostim, Pharmsynthez OJSC)",early phase decline in WBC count (FIG. 3),[2],not able to prevent it
B1,% Survival on Day 16,Erlich carcinoma cells; [8],40%
same,Change in Median Body Weight on Day 16,Erlich carcinoma cells; [8],+2 g
same,% Survival on Day 16,Erlich carcinoma cells; [9],50%
same,Change in Median Body Weight on Day 16,Erlich carcinoma cells; [9],+1.5 g
same,% Survival on Day 16,Erlich carcinoma cells; [10],80%
same,Change in Median Body Weight on Day 16,Erlich carcinoma cells; [10],0
same,% Survival on Day 16,Erlich carcinoma cells; [11],100%
same,Change in Median Body Weight on Day 16,Erlich carcinoma cells; [11],+1.5 g
same,"myocardial necrosis area (sum of necrotic area, FIG. 1)",[3],decreases the myocardial necrosis area
same,Total number of lesions per group,[1]; treatment 1.5 mg/kg IV,60
same,Total number of lesions per group,[1]; treatment 50 mg/kg IV,16
same,achieved protection against chemotherapy-induced ulceration,[1]; DNase I 50 mg/kg compared to 1.5 mg/kg DNase I and 50 mg/kg cimetidine,significantly superior
same,Number of lesion free animals (percent),[1]; treatment 1.5 mg/kg IV,31.25%
same,Median number of lesions,[1]; treatment 1.5 mg/kg IV,3.75 ± 1.53
same,Number of lesion free animals (percent),[1]; treatment 50 mg/kg IV,75%
same,Median number of lesions,[1]; treatment 50 mg/kg IV,1.00 ± 0.69
same,Number of lesion free animals,[1]; treatment 1.5 mg/kg IV,5
same,Number of lesion free animals,[1]; treatment 50 mg/kg IV,12
same,macroscopic appearance of stained stomach (FIG. 2A),[1]; oral Etoposide 200 mg/kg and 5-FU 400 mg/kg followed by IV DNase I 50 mg/kg,does not have any macroscopic abnormalities
same,Median survival of deceased rats,in vivo; [4],10.3 ± 1.4 days
same,Median survival of deceased rats,in vivo; [5],6.2 ± 1.0 days
same,"Body weight of surviving rats, Baseline","in vivo; rat, in vivo",168 ± 4 grams
same,"Body weight of surviving rats, Day 4","in vivo; rat, in vivo",160 ± 6 grams
same,"Body weight of surviving rats, Day 7","in vivo; rat, in vivo",158 ± 5 grams
same,"Body weight of surviving rats, Day 14","in vivo; rat, in vivo",164 ± 6 grams
same,Median survival of deceased rats,"in vivo; rat, in vivo",7 days
same,Number of dead/out of total in group,"in vivo; rat, in vivo",1/6
same,Number of dead/out of total in group,in vivo; [6],3/6
same,Number of dead/out of total in group,in vivo; [7],6/6
same,"neutropenia induced by cyclophosphamide (WBC, FIG. 3)",[2]; DNase I 25 mg/kg/day IV Days 2-5,ameliorates neutropenia
same,early phase decline in WBC count (FIG. 3),[2],prevents the typical early phase decline in WBC count
